In the test the target is SARS-CoV-2 S1 (residues 1-682, Wuhan-Hu-1) (SARS-CoV-2 (Wuhan-Hu-1 strain), UniProt P0DTC2 14-682). As to the kind of experiment: BLI.

B1: 87G7 human monoclonal antibody (recombinant human IgG1/kappa) (antibody, V domains shown)
VH: EVQLLESGGGLVQPGGSLRLSCVASGFTFSSYVMSWVRQAPGKGLEWVAAISGSGGNTYYADSVKGRFTISRDNSKNTLYLQMNSLRAEDTAVYYCAKEGTYYYGSGSFWGQGTLVTVSS
VL: EIVLTQSPATLSLSPGERATLSCRASQSFHNYLAWYQQKPGRAPRLLIFDASNRATGIPARFSGSGSGTDFTLTISSLEPEDFAVYYCQQRFNWPLTFGGGTKVEIK
The molecule B1 displayed a Kd of 2.89 nM.

These data come from publication PMC9097884 (2022).
